The series has as its target T1, KSRP KH23 (KH2-KH3 di-domain) (Homo sapiens, UniProt Q92945 233-418).
T1 sequence: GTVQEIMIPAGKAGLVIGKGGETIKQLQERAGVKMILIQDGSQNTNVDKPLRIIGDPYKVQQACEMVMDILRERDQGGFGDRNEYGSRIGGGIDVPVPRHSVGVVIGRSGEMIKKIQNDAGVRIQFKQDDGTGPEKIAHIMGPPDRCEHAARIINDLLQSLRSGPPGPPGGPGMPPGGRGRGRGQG
The series can be described thus: CD titration.

In general, Kd refers to the equilibrium constant for the complex coming apart. Low readings indicate a tighter complex, high ones a looser complex.

In turn, UAUUUAUUAUUU (ssRNA) [TNFa ARE AU-12mer] displayed a Kd of 1000 ± 100 nM.
